Residue numbers refer to the chain shown, from its start. Names and notes keep the numbering of the source.
Assays:
BasC wild-type = assay: [3H]L-alanine transport (influx, efflux, exchange) in BasC proteoliposomes; type: biochemical, Carnobacterium sp AT7; conditions: for 10 μM [3H]L-alanine exchange into BasC PLs containing 4 mM of the indicated compound: 4 mM compound inside PLs, n=1-3 and mean
Protocol: BasC-GFP protein was reconstituted in E. coli polar lipids (Sigma-Aldrich, Madrid, Spain), as previously described. Lipids were dried under N2 and suspended in reconstitution buffer (20 mM Tris-Base, 150 mM NaCl, pH 7.4). The suspension was sonicated to clarity and purified BasC protein was added to reach the desired protein to lipid ratio of 1:100 (w:w). To destabilize the liposomes, 1.25% ß-D-octylglucoside was added and the mixture was incubated on ice with occasional agitation for 5 min. DDM and ß-D-octylglucoside were removed by dialysis for 40 h at 4 °C against 100 volumes of dialysis buffer. Proteoliposome (PL) suspensions were frozen in liquid N2 and stored at −80 °C until use.
For uptake experiments, the desired intraliposomal amino acid concentration was added to the PL suspension, which was then subjected to three freeze/thaw cycles. The extraliposomal amino acid content was then removed by ultracentrifugation (100,000 × g for 1 h at 4 °C) and PLs were resuspended to one-third of the initial volume with reconstitution buffer. Amino acid uptake assays were initiated after mixing 10 μl of cold PLs with 180 μl of transport buffer (20 mM Tris-Base, 150 mM NaCl, pH 7.4 plus 0.5–1 µCi/180 µl of radiolabeled L-amino acid (Perkin Elmer, Waltham, MA)) supplemented with the unlabeled amino acid to the desired concentration. This mixture was then incubated at room temperature for the indicated periods. […] Filters were then washed twice with 2 ml of stop buffer and dried, and the trapped radioactivity was counted. Transport measured in PLs containing no amino acid was subtracted from each data point to calculate the net exchange. […] BasC protein in PLs was determined by Coomassie blue staining in SDS-PAGE gels compared with known amounts of BasC in DDM micelles, determined by BCA assay (Pierce, Rockford, IL) and loaded in the same gel.

AdiC = system: AdiC; design: method as in PMID 22304019; conditions: cited from earlier work
BasC = assay: Surface plasmon resonance of Nb74-BasC interaction; type: binding, Carnobacterium sp AT7; conditions: read-out: KD (affinity of Nb74 for BasC)
Protocol: Surface plasmon resonance (Biacore T-100, GE Healthcare, Chicago, IL) was used to screen 29 Nbs (one from each family) for binding with BasC, purified as for crystallography. […] BasC was assayed at 500–2.5 nM in running buffer. […] The BasC-Nb74 complex rendered the best results initially and consequently crystals were optimized.

[1] = molecular target: T1, bacterial alanine-serine-cysteine exchanger (BasC), wild-type, purified for crystallography (Carnobacterium sp. AT7); assay: crystal structure; BasC incubated with Nb74 at 1:1.2, complex purified by SEC in 0.17% DM; sitting-drop vapor diffusion at 4 °C, 27–29% PEG 400, 0.1 M ammonium acetate pH 8; apo (2.9 Å) and with 100 mM 2-AIB (3.4 Å); conditions: both partners purified
T1 construct: BasC, bacterial alanine-serine-cysteine exchanger, a prokaryotic L-type amino acid transporter (LAT); In the transport assays (functional rows) BasC stood as uncleaved BasC-GFP reconstituted in E. coli polar lipid proteoliposomes; also called WT; source: E. coli BL21 Star (DE3), purified in DM (Ni2+-NTA, on-column HRV-3C cleavage); not shown: GFP, C-terminal, cleaved
T1 chain: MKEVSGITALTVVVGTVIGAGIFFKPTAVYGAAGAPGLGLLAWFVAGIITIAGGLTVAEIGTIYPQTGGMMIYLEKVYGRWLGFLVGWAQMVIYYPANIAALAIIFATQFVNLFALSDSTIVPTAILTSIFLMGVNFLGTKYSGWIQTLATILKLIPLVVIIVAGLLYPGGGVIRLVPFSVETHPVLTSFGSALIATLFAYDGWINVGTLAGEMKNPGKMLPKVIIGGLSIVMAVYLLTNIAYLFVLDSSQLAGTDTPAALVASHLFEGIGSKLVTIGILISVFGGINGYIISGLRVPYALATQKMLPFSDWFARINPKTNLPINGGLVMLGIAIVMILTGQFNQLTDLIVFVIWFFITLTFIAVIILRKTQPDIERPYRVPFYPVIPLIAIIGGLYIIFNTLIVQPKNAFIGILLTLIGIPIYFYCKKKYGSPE

[2] = molecular target: T1, bacterial alanine-serine-cysteine …; assay: SPR; Biacore T-100; nanobody captured (around 200 RU) on a CM5 chip coated with anti-His antibody; BasC flowed at 500–2.5 nM; running buffer phosphate buffered saline, 0.17% DM; conditions: both partners purified
[3] = substrate: C[C@H](N)C(=O)O; assay: cells, lysate or membranes; conditions: other: L-alanine uptake, pH 7.4, 37.0 °C
[4] = 5 µM Nb74 in medium, exchange with 4 mM L-alanine, NT = 100, n=1-6 and mean

In the case of CC(=O)O [Acetate], the “10 μM [3H]L-alanine exchange into BasC PLs containing 4 mM of the indicated compound” value (BasC wild-type) is reported as “not significant”.

With CC(C)(N)C(=O)O [2-AIB, 2-aminoisobutyric acid] the Km (BasC wild-type; 2-AIB as intraliposomal substrate, read-out: intracellular Km) was 34.5 ± 10 mM and the “intracellular Km relative to L-alanine Km” value (BasC wild-type; higher than L-alanine Km) was ~ 10 fold.

For N=C(N)NCCC[C@H](N)C(=O)O [arginine], the “intracellular apparent Km value compared to the extracellular one” value (AdiC) is given as “two-fold higher”.

In the case of NCCCCN=C(N)N [agmatine], the “intracellular apparent Km value compared to the extracellular one” value (AdiC) is given as “two-fold higher”.

In the case of CCN [Ethylamine, ethylamine], the “10 μM [3H]L-alanine exchange into BasC PLs containing 4 mM of the indicated compound” value (BasC wild-type; listed as ethylamine) is reported as “not significant”.

For NCCCC(=O)O [GABA, γ-aminobutyrate], the “10 μM [3H]L-alanine exchange into BasC PLs containing 4 mM of the indicated compound” value (BasC wild-type) was “not a substrate”.

B1: anti-BasC nanobody 74 (Nb74) (VHH)
VHH: QVQLVESGGGVVQAGGSLRLSCAASGRTFSSRAMGWFRQAPGEGREFVATISWSGSYTEYADSVKGRVTISRDNAKNTVYLQMNSLKPGDTAVYHCAAKNGGAASNYPNDYVYWGQGTQVTVSS
notes: nanobody from a llama immunised with BasC proteoliposomes, selected by phage display (vector pMESy4); Captured by its His tag on an anti-His antibody in the SPR experiment
With B1 the Kd (BasC) was 3.87 nM, the “Efflux of 10 µM [3H]L-alanine, normalized to non-treated PLs” value (BasC wild-type; [4]) was 9.14 and the “Influx of 10 µM [3H]L-alanine, normalized to non-treated PLs” value (BasC wild-type; [4]) was 105.77. For the same molecule, the IC50 (BasC wild-type; read-out: IC50 of 10 µM [3H]L-alanine efflux, efflux in exchange with 4 mM L-alanine, Nb74 in PL medium) was about 300 nM, the “stoichiometry N” value [1] was 1 and the Kd [2] was 3.9 ± 1.4 nM.

B2: human Asc-1 (hAsc-1) wild-type (Homo sapiens) (protein)
chain: MAGHTQQPSGRGNPRPAPSPSPVPGTVPGASERVALKKEIGLLSACTIIIGNIIGSGIFISPKGVLEHSGSVGLALFVWVLGGGVTALGSLCYAELGVAIPKSGGDYAYVTEIFGGLAGFLLLWSAVLIMYPTSLAVISMTFSNYVLQPVFPNCIPPTTASRVLSMACLMLLTWVNSSSVRWATRIQDMFTGGKLLALSLIIGVGLLQIFQGHFEELRPSNAFAFWMTPSVGHLALAFLQGSFAFSGWNFLNYVTEEMVDARKNLPRAIFISIPLVTFVYTFTNIAYFTAMSPQELLSSNAVAVTFGEKLLGYFSWVMPVSVALSTFGGINGYLFTYSRLCFSGAREGHLPSLLAMIHVRHCTPIPALLVCCGATAVIMLVGDTYTLINYVSFINYLCYGVTILGLLLLRWRRPALHRPIKVNLLIPVAYLVFWAFLLVFSFISEPMVCGVGVIIILTGVPIFFLGVFWRSKPKCVHRLTESMTHWGQELCFVVYPQDAPEEEENGPCPPSLLPATDKPSKPQ
With B2 the Km ([3]; wild-type hAsc-1, HeLa cells) was 0.0675 ± 0.0042 mM and the Vmax ([3]; wild-type hAsc-1, HeLa cells) was 1703 ± 425 pmols µg protein^−1 min^−1.

B3: hAsc-1 K194A mutant (Homo sapiens; K194A) (protein)
chain: B2 chain with K194A
In the case of B3, the Km ([3]; K194A hAsc-1, HeLa cells) is reported as 0.825 ± 0.053 mM and the Vmax ([3]; K194A hAsc-1, HeLa cells) is reported as 152 ± 16 pmols µg protein^−1 min^−1.

From PMC6472337, “L amino acid transporter structure and molecular bases for the asymmetry of substrate interaction” (Nature Communications, 2019)
